Measured values: patent US20220127585A1
Where no end group is shown, it is not given here. [ ]: non-standard residue; d: D form. code O = not defined here; Dab = NCC[C@H](N)C(=O)O

T1: B-Raf kinase, P15056
T1 chain: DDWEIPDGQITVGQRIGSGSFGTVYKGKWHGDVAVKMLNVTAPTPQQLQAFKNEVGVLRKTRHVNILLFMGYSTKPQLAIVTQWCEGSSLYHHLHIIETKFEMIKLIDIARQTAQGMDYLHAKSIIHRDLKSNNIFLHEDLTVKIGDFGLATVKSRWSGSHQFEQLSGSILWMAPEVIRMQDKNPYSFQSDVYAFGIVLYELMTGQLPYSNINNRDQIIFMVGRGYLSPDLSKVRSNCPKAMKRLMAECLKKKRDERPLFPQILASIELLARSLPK


Assays:
[1] = molecular target: T1, B-Raf kinase, P15056; experiment: intrinsic tryptophan fluorescence (ITF), column head 'Kd (ITF) (µM)'
[2] = molecular target: T1, B-Raf kinase, P15056; experiment: intrinsic fluorescence titration (ITF) of B-Raf in solution
[3] = molecular target: T1, B-Raf kinase, P15056; experiment: ITC
[4] = molecular target: T1, B-Raf kinase, P15056; experiment: binding affinity, Table 3 (method not given; the Methods describe fluorescence titration)
[5] = molecular target: T1, B-Raf kinase, P15056; experiment: Kd for the B-Raf dimer interface (FIG. 1), fluorescence titration
[6] = molecular target: T1, B-Raf kinase, P15056; experiment: binding affinity with BRAF, Table 2 (method not given; the Methods describe fluorescence titration)

Kd [2]	Binder	other results
	TRHVNILLFMG (modifications not checked) [SEQ ID NO: 45 (…) with N-Cap N2]	Kd [1]: 0.084 µM
0.57 µM	VLRKTRHVNILLAMG (modifications not checked) [SEQ ID NO: 29 (504-518 F516A, …)]	
	GVLRKARHVNILLFMGYST (modifications not checked) [SEQ ID NO: 8]	ΔH [3]: -8.32 kcal/mol
0.54 µM	VLRKTRHVNILLFAG (modifications not checked) [SEQ ID NO: 30 (504-518 M517A, …)]	
0.19 µM	LRKTRHVNILLFMG (modifications not checked) [SEQ ID NO: 31 (…)]	Kd [4]: 1.88 µM
	TRHVNILLFMG (modifications not checked) [SEQ ID NO: 45 (…) with N-Cap N1]	Kd [1]: 0.05 µM
	GVLRKTRHVNILLFMGYST (modifications not checked) [SEQ ID NO: 1 (B-Raf residues 503-521, …)]	Kd [5]: 3.84 µM
0.36 µM	VLAKTRHVNILLFMG (modifications not checked) [SEQ ID NO: 22 (504-518 R506A, …)]	
1.09 µM	GVLEKTRHVNILLFMGYST (modifications not checked) [SEQ ID NO: 5 (503-521 R506E, …)]	
0.45 µM	VARKTRHVNILLFMG (modifications not checked) [SEQ ID NO: 21 (504-518 L505A, …)]	
1.02 µM	VLRKTRHVNIALFMG (modifications not checked) [SEQ ID NO: 28 (504-518 L514A, …)]	
	VLRKKRHVAELLFMG (modifications not checked) [SEQ ID NO: 60 (VLRKKMe…)]	Kd [4]: 0.039 µM
9.8 µM	GVLRKTRHVNIALFMGYST (modifications not checked) [SEQ ID NO: 11 (503-521 L514A, …)]	
3.89 µM	GVARKTRHVNILLFMGYST (modifications not checked) [SEQ ID NO: 4 (503-521 L505A, …)]	
4.75 µM	GVLRKTRHANILLFMGYST (modifications not checked) [SEQ ID NO: 10 (503-521 V511A, …)]	
2.2 µM	GVLRKDRHVNILLFMGYST (modifications not checked) [SEQ ID NO: 7 (503-521 T508D, …)]	

Kd [2]	Binder	other results
4.1 µM	GVLRKTRHVNILIFMGYST (modifications not checked) [SEQ ID NO: 12 (503-521 L515I, …)]	
2.96 µM	GRINKGRHTFLLVVMTYSL (modifications not checked) [SEQ ID NO: 3 (scrambled, …)]	
1.89 µM	LRKKRHVNELLFMG (modifications not checked) [SEQ ID NO: 37 (cyclo 508-513 T508K, I513E, …)]	
	KRHPAELLFMG (modifications not checked) [SEQ ID NO: 61 (…)]	Kd [4]: 0.16 µM
2.69 µM	VLRKTRHVNALLFMG (modifications not checked) [SEQ ID NO: 27 (504-518 I513A, …)]	
	V[Dab]RKKRHVNELLDMG [SEQ ID NO: 54 (VDab…)]	Kd [6]: 0.37 µM
	GVLLKTRHVNILLFMGYST (modifications not checked) [SEQ ID NO: 6]	Kd [5]: 0.54 µM
	VLRKKRHVNELLFMG (modifications not checked) [SEQ ID NO: 53 (…)]	Kd [4]: 1.89 µM; Kd [6]: 1.89 µM
	VLRK[code O]RHVAELIFMG (reading uncertain) [SEQ ID NO: 58 (VLRKO…)]	Kd [4]: 0.17 µM
0.55 µM	LLKTRHVNILLFMG (modifications not checked) [SEQ ID NO: 32 (505-518 R506L, …)]	
	KRHVAELLFMG (modifications not checked) [SEQ ID NO: 47 (…)]	Kd [4]: 0.59 µM
1.88 µM	GVLRKTRHVNILLFMG (modifications not checked) [SEQ ID NO: 15 (503-518, …)]	
2.4 µM	VLRKTAHVNILLFMG (modifications not checked) [SEQ ID NO: 24 (504-518 R509A, …)]	
	VLRKTRHVNILLFM (modifications not checked) [SEQ ID NO: 16 (…)]	Kd [6]: 5.75 µM
2.7 µM	VLRKTRAVNILLFMG (modifications not checked) [SEQ ID NO: 25 (504-518 H510A, …)]	
	VCRKTRHVNILLCM (modifications not checked) [SEQ ID NO: 33 (…)]	Kd [6]: 0.36 µM
